Assays:
[1] = target: 158.3; test: Biacore
[2] = target: 151; test: Biacore
[3] = target: 2.69 LC2; test: Biacore
[4] = target: 158.3; test: KinExA
[5] = target: 151; test: KinExA

| Binder | Kd [1] | Kd [2] | Kd [3] | Kd [4] | Kd [5] |
| --- | --- | --- | --- | --- | --- |
| Soluble human MSLN (other) EVEKTACPSGKKAREIDESLIFYKKWELEACVDAALLATQMDRVNAIPFTYEQLDVLKHKLDELYPQGYPESVIQHLGYLFLKMSPEDIRKWNVTSLETLKALLEVNKGHEMSPQAPRRPLPQVATLIDRFVKGRGQLDKDTLDTLTAFYPGYLCSLSPEELSSVPPSSIWAVRPQDLDTCDPRQLDVLYPKARLAFQNMNGSEYFVKIQSFLGGAPTEDLKALSQQNVSMDLATFMKLRTDAVLPLTVAEVQKLLGPHVEGLKAEERHRPVRDWILRQRQDDLDTLGLGLQGGIPNGYLVLDLSMQEALS | 2.4 nM | 17.4 nM | 0.228 nM |  |  |
| Native hu MSLN (cells) (other) EVEKTACPSGKKAREIDESLIFYKKWELEACVDAALLATQMDRVNAIPFTYEQLDVLKHKLDELYPQGYPESVIQHLGYLFLKMSPEDIRKWNVTSLETLKALLEVNKGHEMSPQAPRRPLPQVATLIDRFVKGRGQLDKDTLDTLTAFYPGYLCSLSPEELSSVPPSSIWAVRPQDLDTCDPRQLDVLYPKARLAFQNMNGSEYFVKIQSFLGGAPTEDLKALSQQNVSMDLATFMKLRTDAVLPLTVAEVQKLLGPHVEGLKAEERHRPVRDWILRQRQDDLDTLGLGLQGGIPNGYLVLDLSMQEALS |  |  |  | 0.0122 nM | 0.03 nM |
